In article PMC2175296 one finds percent of telomerase activity associated with the beads data, which are given here for one substance.

Values joined by “and” are separate entries in the source; they are usually repeats but may differ in a detail not shown here. Equal entries are not always repeated.

The test deals with GST–hEST1A (recombinant full-length human EST1A/SMG6 as N-terminal GST fusion) (human) (UniProt Q86US8). The experiment in a line: pull-down.
UniProt Q86US8, sequence (Q86US8 whole entry, the tested form may be a part): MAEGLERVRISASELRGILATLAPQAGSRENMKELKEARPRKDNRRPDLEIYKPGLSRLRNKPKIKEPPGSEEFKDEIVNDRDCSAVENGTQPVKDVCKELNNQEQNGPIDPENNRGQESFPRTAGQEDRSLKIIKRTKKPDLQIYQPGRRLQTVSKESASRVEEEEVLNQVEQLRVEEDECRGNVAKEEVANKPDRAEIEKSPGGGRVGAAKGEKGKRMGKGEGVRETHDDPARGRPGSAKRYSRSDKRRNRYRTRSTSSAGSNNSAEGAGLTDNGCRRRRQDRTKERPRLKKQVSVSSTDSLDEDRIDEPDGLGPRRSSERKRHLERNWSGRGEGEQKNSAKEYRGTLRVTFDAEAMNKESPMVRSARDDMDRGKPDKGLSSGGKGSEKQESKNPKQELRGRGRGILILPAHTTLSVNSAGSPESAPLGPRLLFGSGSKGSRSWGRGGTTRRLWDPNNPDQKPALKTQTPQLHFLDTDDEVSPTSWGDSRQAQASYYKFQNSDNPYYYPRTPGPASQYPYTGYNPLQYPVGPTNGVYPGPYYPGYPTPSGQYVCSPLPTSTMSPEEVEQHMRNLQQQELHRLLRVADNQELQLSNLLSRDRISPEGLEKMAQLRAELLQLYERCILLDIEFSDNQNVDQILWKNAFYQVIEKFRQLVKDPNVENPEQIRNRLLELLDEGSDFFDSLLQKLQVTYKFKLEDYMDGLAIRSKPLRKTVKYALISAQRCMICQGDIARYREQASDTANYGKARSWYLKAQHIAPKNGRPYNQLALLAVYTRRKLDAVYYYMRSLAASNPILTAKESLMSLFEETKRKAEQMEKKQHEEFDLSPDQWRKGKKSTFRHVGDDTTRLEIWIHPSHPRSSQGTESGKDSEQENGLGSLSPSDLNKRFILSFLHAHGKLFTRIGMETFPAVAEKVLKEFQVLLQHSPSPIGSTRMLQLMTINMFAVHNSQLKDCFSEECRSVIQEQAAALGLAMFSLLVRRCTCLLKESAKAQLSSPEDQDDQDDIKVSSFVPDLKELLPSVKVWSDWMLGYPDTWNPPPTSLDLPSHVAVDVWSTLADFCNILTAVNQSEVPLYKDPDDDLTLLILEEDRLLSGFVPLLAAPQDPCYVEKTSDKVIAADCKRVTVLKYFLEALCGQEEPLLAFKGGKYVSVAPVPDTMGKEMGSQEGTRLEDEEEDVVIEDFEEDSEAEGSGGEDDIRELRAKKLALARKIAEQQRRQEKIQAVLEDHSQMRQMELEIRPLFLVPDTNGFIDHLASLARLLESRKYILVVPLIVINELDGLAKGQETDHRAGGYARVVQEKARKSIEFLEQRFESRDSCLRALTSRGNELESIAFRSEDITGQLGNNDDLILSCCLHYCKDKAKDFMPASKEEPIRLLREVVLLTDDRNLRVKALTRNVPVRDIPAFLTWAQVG

With “telomerase, expressed and reconstituted in insect cells or in RRL”, the percent of telomerase activity associated with the beads is 10 percent and 30 percent.
